Literature values, collected in PMC7150914.

Key:
[1] = molecular target: PSP94 (β-microseminoprotein) (Homo sapiens) (UniProt P08118)
[2] = molecular target: α-1B glycoprotein (Homo sapiens) (UniProt P04217)
CNGA1 (Bos taurus) = CNGA1 (Bos taurus) (UniProt Q00194)
[3] = molecular target: CNGA2 (Rattus norvegicus) (UniProt Q00195)
Sequence of UniProt Q00195 (Q00195 whole entry): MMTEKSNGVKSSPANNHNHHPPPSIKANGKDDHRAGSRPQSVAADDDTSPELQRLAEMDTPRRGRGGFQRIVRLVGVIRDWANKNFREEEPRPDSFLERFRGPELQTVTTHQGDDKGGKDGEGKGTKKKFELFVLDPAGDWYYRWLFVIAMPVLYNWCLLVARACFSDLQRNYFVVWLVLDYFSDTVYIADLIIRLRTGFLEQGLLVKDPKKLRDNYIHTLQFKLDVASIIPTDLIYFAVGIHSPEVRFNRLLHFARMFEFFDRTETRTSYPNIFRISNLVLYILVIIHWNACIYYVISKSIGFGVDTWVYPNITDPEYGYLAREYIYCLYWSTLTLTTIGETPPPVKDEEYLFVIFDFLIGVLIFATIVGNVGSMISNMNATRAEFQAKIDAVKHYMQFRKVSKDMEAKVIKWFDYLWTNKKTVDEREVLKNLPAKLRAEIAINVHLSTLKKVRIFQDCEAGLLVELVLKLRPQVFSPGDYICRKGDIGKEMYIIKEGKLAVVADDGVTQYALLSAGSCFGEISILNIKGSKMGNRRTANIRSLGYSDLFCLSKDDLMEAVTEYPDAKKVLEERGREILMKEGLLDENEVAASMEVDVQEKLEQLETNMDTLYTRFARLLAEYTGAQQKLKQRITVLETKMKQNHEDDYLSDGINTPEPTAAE

Sequence of UniProt Q00194 (Q00194 whole entry): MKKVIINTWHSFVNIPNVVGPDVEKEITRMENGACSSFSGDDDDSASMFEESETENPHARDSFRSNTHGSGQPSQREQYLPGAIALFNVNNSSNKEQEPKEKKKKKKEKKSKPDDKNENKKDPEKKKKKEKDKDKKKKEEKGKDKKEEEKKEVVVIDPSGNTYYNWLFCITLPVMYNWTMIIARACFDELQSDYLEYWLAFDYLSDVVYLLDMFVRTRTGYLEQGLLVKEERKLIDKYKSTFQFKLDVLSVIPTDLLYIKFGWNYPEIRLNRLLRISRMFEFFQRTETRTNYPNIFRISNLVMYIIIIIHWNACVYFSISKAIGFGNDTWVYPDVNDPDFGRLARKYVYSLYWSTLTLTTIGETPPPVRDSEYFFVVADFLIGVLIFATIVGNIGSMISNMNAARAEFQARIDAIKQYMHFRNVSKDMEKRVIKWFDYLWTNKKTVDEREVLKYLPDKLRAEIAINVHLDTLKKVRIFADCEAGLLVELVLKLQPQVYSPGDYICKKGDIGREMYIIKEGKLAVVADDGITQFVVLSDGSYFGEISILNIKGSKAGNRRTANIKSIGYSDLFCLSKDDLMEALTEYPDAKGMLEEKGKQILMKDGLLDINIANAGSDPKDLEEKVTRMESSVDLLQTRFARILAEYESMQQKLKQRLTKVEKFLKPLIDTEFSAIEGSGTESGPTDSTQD
Sequence of UniProt P08118 (P08118 21-114): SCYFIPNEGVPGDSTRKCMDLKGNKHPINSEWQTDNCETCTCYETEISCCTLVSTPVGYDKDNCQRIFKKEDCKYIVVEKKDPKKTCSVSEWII
Sequence of UniProt P04217 (P04217 22-495): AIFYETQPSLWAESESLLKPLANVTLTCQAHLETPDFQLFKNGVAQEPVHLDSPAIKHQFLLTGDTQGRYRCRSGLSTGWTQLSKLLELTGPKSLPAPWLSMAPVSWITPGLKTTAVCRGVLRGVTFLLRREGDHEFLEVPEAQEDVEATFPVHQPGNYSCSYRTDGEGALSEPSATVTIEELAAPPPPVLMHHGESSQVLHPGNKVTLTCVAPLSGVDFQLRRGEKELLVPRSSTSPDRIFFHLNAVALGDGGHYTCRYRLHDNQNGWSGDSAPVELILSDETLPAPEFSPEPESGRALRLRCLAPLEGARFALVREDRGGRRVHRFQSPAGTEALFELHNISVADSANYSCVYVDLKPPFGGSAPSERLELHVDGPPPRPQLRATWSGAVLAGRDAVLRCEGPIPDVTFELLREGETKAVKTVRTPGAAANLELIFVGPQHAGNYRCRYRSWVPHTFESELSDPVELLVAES

Kd [1]	Kd [2]	Substance	Ki (CNGA1 (Bos taurus))	Ki [3]
0.0628 nM	2.8 nM	CRISP-3 (from UniProt P54108)	–	–
–	–	Pseudechetoxin (PsTx) (from UniProt Q8AVA4)	70 nM	15 nM
